Test results reported in the nanobody polyreactivity screen of Harvey et al. (2022).

Experiment: yeast display, Sf9 membrane polyspecificity reagent, FACS + sequencing; frameworks hold sequencing errors
Method in brief: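 Polyreactivity labels are assigned by the sorting gate from which each nanobody was recovered. The gates were low and high (top ~1%), set on anti-HA fluorescence for expression and streptavidin fluorescence for reagent binding. Before sorting, galactose-induced (36–48 hours) yeast display cells were stained for 1 hour at 4 °C with 10% biotinylated, detergent-solubilized Sf9 membrane reagent.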

| Sequence | polyreactivity (PSR sort gate) |
| --- | --- |
| QVQLVESGGGLVQAGGSLRLSCAASGSTFPLYAMGWYRQAPGKERELVATITGSGGSTNYADSVKGRFTISRDNAKNTVYLQMNSLKPEDTAVYYCNARRRRLVSYYYWGQGTQVTVSS | high polyreactivity |
| QVQLVESGGGLVQAGGSLRLSCAASGSTFPLYAMGWYRQAPGKEREMVAAITGGGGRTYYADSVKGRFTISRDNAKNTVYLQMNSLKPEDTAVYYCNAVVYLTNYWYDYWGQGTQVTVSS | low polyreactivity |
| QVQLVESGGGLVQAGGSLRLSCAASGSTFPNYAMGWYRQAPGKERELVASISVTTGSTYYADSVKGRFTISRDYAKNTVYLQMNSLKPEDTAVYYCAKRTSSRKFRGAYNYWGQGTQVTVST | high polyreactivity |
| QVQLVESGGGLVQAGGSLRLSCAASGSTFPNYPMGWYRQAPGKERELVAAITWSGGSTDYADSVKGRFTISRDNAKNTVYLQMNSLKPEDTAVYYCNADFGYWWDGRRYDYWGQGTQVTVSS | low polyreactivity |
| QVQLVESGGGLVQAGGSLRLSCAASGSTFPPNAMGRYRQAPGKERELVAAISFSSGRTYYADSVKGRFTFSRDNAKNTVYLQMNSLKPEDTAVYYCAADHGYLGQGTQVTVSS | low polyreactivity |
| QVQLVESGGGLVQAGGSLRLSCAASGSTFPPNAMGWYRQAPGKERELVAGINGSGGRTYYADSVKGRFTISRDNAKNTVYLQLNCMKPEDTAVYYCAAEGTTIWFDLTYDDWYEYYSWGQGTQVTVSS | high polyreactivity |
| QVQLVESGGGLVQAGGSLRLSCAASGSTFPPYVMGWYRQAPGKERELVAAITWSSGSTYYADSVKGRFTISRDNAKNTVYLQMNSLKPEDTAVYYCAAKWLGYGFDYWGQGTQVTVSS | low polyreactivity |
| QVQLVESGGGLVQAGGSLRLSCAASGSTFPRNAMGWYRQAPGKERELVATITSSGGGTYYADSVKGRFTISRDNAKNTVYLQMNSLKPEDTAVYYCNVEVHPYYWVDNFHRFPVLHNYWGQGTQVTVSA | low polyreactivity |
| QVQLVESGGGLVQAGGSLRLSCAASGSTFPRNDMGWYRQAPGKERELVAAISRGGSTNNADSVKGRFTISRDNAKNTVYLQMNSLKPEDTAVYYCAAQIFESAYGMDYWGQGTQVTVSS | low polyreactivity |
| QVQLVESGGGLVQAGGSLRLSCAASGSTFPRYAMGWYRPAPGKERELVARISNSGASTYYADSVKGRFTISRDNAKNTVYLQMNSLKPEDTAVYYCNARRYSRPSGFKHYHYAESDYWGQGTQVTVSS | high polyreactivity |
| QVQLVESGGGLVQAGGSLRLSCAASGSTFPSNAMGWYRQAPGKERELVAAISSGGRTYYADSVKGRFTISRDNAKNTVYLQMNSLKPEDTAVYYCAADTDRRSPFDYWGQGTQVTVSS | high polyreactivity |
| QVQLVESGGGLVQAGGSLRLSCAASGSTFPSNVMGWNRQAPVKERELVAAITWSGVRTYYADSVKGRFTISRDNAKNTVYLQMNSLKPEDTAVYYCAARSTYVRYDYWGQGTQVTVSS | high polyreactivity |
| QVQLVESGGGLVQAGGSLRLSCAASGSTFPSYAMGWSRQAPGKERELVAAISRSGGSTYYADSVKGRFTISRDNAKNTVYLQMISLKPEDTAVYYCAARGHLRYESDYWGQGTQVTVSS | high polyreactivity |
| QVQLVESGGGLVQAGGSLRLSCAASGSTFPSYAMGWYRQAPGKERELVAAINSGGGTNYADSVKGRFTISRDTAKNTVYLQMNSLKPEDTAVYYCAKARYDYTKPEGGYWGQGTHVTVSS | low polyreactivity |
| QVQLVESGGGLVQAGGSLRLSCAASGSTFPSYAMGWYRQAPGKERELVAAISGSGTSTYYADSVKGRFTISRDNAKNTVYLQMNSRKPEDTAVYYCRAVWLSTYLGWGRDYWGQGTQVTVSS | high polyreactivity |
| QVQLVESGGGLVQAGGSLRLSCAASGSTFPWNAMGWYRQAPGKERELVAAINYGNGSTYYADSVKGRFTISRDNAKNTVYLQMNSLKPVDTAVYYCNADFTGTRSDSVTPEYEYWGQGTQVTVSS | low polyreactivity |

| Sequence | polyreactivity (PSR sort gate) |
| --- | --- |
| QVQLVESGGGLVQAGGSLRLSCAASGSTFPWYVMGWYRQAPGKERELVAAISWSGGRTYYADSVKGRFTISRDNAKNTVYLQMNSLKPEDTAVYYCAADLSYWRGGHSRNYWGQGTQVTVSS | low polyreactivity |
| QVQLVESGGGLVQAGGSLRLSCAASGSTFPYNAMGCDRQAAGKERELVAAISFSGGITTYADSVKGRFTISRDNAKNTVYLQMNSLKPEDTAVYYCNVAYTLHFGYWGQGTQVTVSS | low polyreactivity |
| QVQLVESGGGLVQAGGSLRLSCAASGSTFPYNAMGWYRQAPGKERELVAAITSSGRTNYADSVKGRFTITLDNAKNTVYLQMNSLKPEDTAVYYCAAGRWYAHRVDYWGQGSQVTVSS | low polyreactivity |
| QVQLVESGGGLVQAGGSLRLSCAASGSTFPYNAMGWYRQAPGKERELVAAITWRAGRTYYADSVKGRFTISRDNAKNTVYLQMNSLKPEDTAVYYCAKSYQRGVNHYEYWGQGTQVTVSS | high polyreactivity |
| QVQLVESGGGLVQAGGSLRLSCAASGSTFPYNAMGWYRQAPGKERELVAANTFSGGSTYYADSVKGRFTISRDNAKNTVYLQMNSLKPEDTAVYYCNARYPWWGQRYDYWGQGTQVTVSS | low polyreactivity |
| QVQLVESGGGLVQAGGSLRLSCAASGSTFPYNAMGWYSPAPGKERELVAAITSAGGTNYADSVKGRFTISRDNATNTVYLQMNSLKPEDTAVYYCAADGSGYYDWYYYWGQGTQVTVSS | low polyreactivity |
| QVQLVESGGGLVQAGGSLRLSCAASGSTFPYYALGWSRQAPGKEREFVATISSSGGSTYYADSVKGRFTISRDNAKNTVYLQMNSLKPEDTAVYYCAARYQTSGFRYRYGYWGQGTQVTVSS | high polyreactivity |
| QVQLVESGGGLVQAGGSLRLSCAASGSTFPYYAMGWYRQAPGKERELVAAISRGDSTNYADSVKGRFTISRDNAKNTVYLQMNSLKPEDTAVYYCAARLQYRRTSVKYYYWGQGTQVTVSS | high polyreactivity |
| QVQLVESGGGLVQAGGSLRLSCAASGSTFPYYAMGWYRQAPGKERELVAAISRRGGSTYYADSVKGRFTISRDNAKNTVYLQMNSLKPEDTAVYYCAAGYYPSSSGDDYWGQGTQVTVSS | high polyreactivity |
| QVQLVESGGGLVQAGGSLRLSCAASGSTFPYYAMGWYRQAPGKERELVAAITSSASTYYADSVKGRFTISRDNAKNTVYLQMNSLKPEDTAVYYCAVRSPYRLSRWRVGYWGQGTQVTVSS | high polyreactivity |
| QVQLVESGGGLVQAGGSLRLSCAASGSTFPYYAMGWYRQAPGKERELVARISSGSSTNYADSVKGRFTISRDNAKNTVYLQMNSLKPEDTAVYYCAARYTARRQSYGYWGQGTQVTVSS | high polyreactivity |
| QVQLVESGGGLVQAGGSLRLSCAASGSTFPYYGMGWYRQAPGKERDLVAVISRRGTGTYYADSVKGRFTISRDNAKNTVYLQMNSLKPEDTAVYYCNTDTHGPGPTFDHYDYWGQGTQVTVSS | low polyreactivity |
| QVQLVESGGGLVQAGGSLRLSCAASGSTFPYYVMGWYRQAPGKERELVAAISKSGGSTYYADSVKGRFTISRDNEKNTVYLQMNSLKPEDTAVYYCAKSYRSSRRYNYWGQDTQVTVSS | high polyreactivity |
| QVQLVESGGGLVQAGGSLRLSCAASGSTFQANTMGWYRQAPGKERELVAAISIRGANTYYADSVKGRFTISRDNAKNTVYLQMNSLKPEDTAVYYCATRVRKYSLRLDYWGQGTQVTVSS | high polyreactivity |
| QVQLVESGGGLVQAGGSLRLSCAASGSTFQFYAMGWSRQAPGKERELVATISSGDSTNYADSVKGRFTISRDNAKNTVYLQMNSLKPEDTAVYYCAADFWGQYQGLDGGDYWGQGTQVTVSS | low polyreactivity |
| QVQLVESGGGLVQAGGSLRLSCAASGSTFQFYAMGWYRHAPGKERELVAAIDGSDGDTYYADSVKGRFTISRDNAKNTVYLQMNSLKPEDTAVYYCNADRDALVGYDYDYWGQGTQVTVSS | low polyreactivity |
